# Laboratory results published in patent US20200407445A1 (ITEOS THERAPEUTICS, published 2020).
# T1: human TIGIT expressed on cells (human, UniProt Q495A1 22-244)
# T1 sequence (looked up): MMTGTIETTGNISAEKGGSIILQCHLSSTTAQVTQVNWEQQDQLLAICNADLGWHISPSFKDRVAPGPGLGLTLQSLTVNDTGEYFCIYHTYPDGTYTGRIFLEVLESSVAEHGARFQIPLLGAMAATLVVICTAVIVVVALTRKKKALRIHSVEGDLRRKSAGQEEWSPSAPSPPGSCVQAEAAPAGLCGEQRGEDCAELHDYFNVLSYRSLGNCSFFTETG
# T2: Human TIGIT-Fc (human, UniProt Q495A1 22-141)
# T2 construct: bought (Creative Biomart); also called TIGIT-Fc antigen; TIGIT-Fc fusion antigen; not shown: Fc part
# T2 sequence (looked up): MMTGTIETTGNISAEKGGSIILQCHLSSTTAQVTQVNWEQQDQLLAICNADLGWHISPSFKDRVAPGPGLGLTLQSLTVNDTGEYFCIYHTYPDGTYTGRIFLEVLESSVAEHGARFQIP
# T3: mouse TIGIT expressed on cells (mouse, UniProt P86176 29-249)
# T3 construct: whole, on cells; on Jurkat cells engineered to express mouse TIGIT; also called mTIGIT; Jurkat-mTIGIT
# T3 sequence (looked up): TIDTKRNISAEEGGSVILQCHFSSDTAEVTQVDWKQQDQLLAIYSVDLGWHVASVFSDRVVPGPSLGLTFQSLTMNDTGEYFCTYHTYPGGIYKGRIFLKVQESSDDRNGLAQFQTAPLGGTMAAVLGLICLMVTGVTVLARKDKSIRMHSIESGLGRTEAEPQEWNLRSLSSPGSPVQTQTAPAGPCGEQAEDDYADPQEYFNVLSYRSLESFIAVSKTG
# T4: Human TIGIT-His (human, UniProt Q495A1 22-141, biotinylated in the ForteBio Fab assay)
# T4 construct: bought (Creative Biomart); also called Biotinylated Human TIGIT HIS; TIGIT-His monomer; not shown: His tag
# T4 sequence (looked up): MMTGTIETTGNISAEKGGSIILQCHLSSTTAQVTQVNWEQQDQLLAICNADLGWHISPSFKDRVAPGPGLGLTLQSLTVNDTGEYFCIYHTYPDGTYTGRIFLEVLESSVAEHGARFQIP
# Legend:
# [1] = target: T1, human TIGIT expressed on cells; test: cell-based or functional assay
# Human TIGIT-Fc = target: T2, Human TIGIT-Fc; test: ForteBio BLI, IgG KD, avid
# Procedure: Briefly, ForteBio affinity measurements were performed by loading IgGs on-line onto AHQ sensors. Sensors were equilibrated off-line in assay buffer for 30 min and then monitored on-line for 60 seconds for baseline establishment. Sensors with loaded IgGs were exposed to 100 nM antigen (human TIGIT-Fc, human TIGIT-His or cyno TIGIT-Fc) for 5 minutes, afterwards they were transferred to assay buffer for 5 min for off-rate measurement. Kinetics were analyzed using the 1:1 binding model.
# [2] = target: T1, human TIGIT expressed on cells; test: flow cytometry, 100 nM Ab, Jurkat-hTIGIT vs untransfected
# Procedure: (§1) Antibodies were incubated with the cells for 20 min at 4° C. in FACS buffer. […] Geometric mean fluorecence intensity was analysed using LSR BD Fortessa. Cell binding was recorded as the median florescence intensity of PE on the transfected line compared to the un-transfected line for each antibody (Table 3).
# [3] = target: T3, mouse TIGIT expressed on cells; test: flow cytometry, 100 nM Ab, Jurkat-mTIGIT vs untransfected
# Procedure: as §1
# Human TIGIT-His = target: T4, Human TIGIT-His; test: ForteBio BLI, Fab KD, monovalent
# Cyno TIGIT-Fc = target: T5, Cyno TIGIT-Fc (cynomolgus, UniProt A0A7N9I9V4 89-209); test: ForteBio BLI, Fab KD, monovalent
# T5 construct: not shown: Fc part
# [4] = target: T1, human TIGIT expressed on cells; test: cell-based or functional assay; remark: listed apart in the source
# T5 sequence (A0A7N9I9V4 entry or part of it): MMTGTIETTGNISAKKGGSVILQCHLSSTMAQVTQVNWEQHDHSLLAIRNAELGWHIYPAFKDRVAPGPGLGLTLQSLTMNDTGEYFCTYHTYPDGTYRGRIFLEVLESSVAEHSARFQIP
Binder,"Induction over Isotype control (fold change), luciferase, Jurkat-hTIGIT + CHO-TCR-CD155, 133 nM [1] [fold]",Kd (Human TIGIT-Fc) [nM],FON (Fold Over Negative) [2] [fold],FON (Fold Over Negative) [3] [fold],Kd (Human TIGIT-His) [nM],Kd (Cyno TIGIT-Fc) [nM],further results
"Fab of anti-TIGIT clone 26521 (Fab, V domains shown) VH: QVQLVQSGAEVKKPGSSVKVSCKASGGTFSSYAISWVRQAPGQGLEWMGGIIPIFGTANYAQKFQGRVTITADESTSTAYMELSSLRSEDTAVYYCARLHLGSSAYYGMDVWGQGTTVTVSS VL: DIQMTQSPSSLSASVGDRVTITCRASQSISSYLNWYQQKPGKAPKLLIYAASSLQSGVPSRFSGSGSGTDFTLTISSLQPEDFATYYCQQRYVFPPTFGGGTKVEIK",–,–,–,–,9.87,149,–
"Fab of anti-TIGIT clone 31288 (Fab, V domains shown, Fab) VH: QLQLQESGPGLVKPSETLSLTCTVSGGSISSGSYYLAWIRQPPGKGLEWIGSIFRSGSTYYNPSLESRVTISVDTSKNQFSLKLSSVTAADTAVYYCAIEGANFKDFGYVAFDIWGQGTTVTVSS VL: EIVMTQSPATLSVSPGERATLSCRASQSVSSNLAWYQQKPGQAPRLLIYGASTRATGIPARFSGSGSGTEFTLTISSLQSEDFAVYYCQQSPPWPRTFGGGTKVEIK",–,–,–,–,2.09,25.1,–
"Fab of anti-TIGIT clone 26486 (Fab, V domains shown) VH: QVQLQESGPGLVKPSETLSLTCAVSGYSISSGYYWAWIRQPPGKGLEWIGSIYHSGSTYYNPSLKSRVTISVDTSKNQFSLKLSSVTAADTAVYYCAIEGANYYDFGYVAFDIWGQGTMVTVSS VL: EIVMTQSPATLSVSPGERATLSCRASQSVSSNLAWYQQKPGQAPRLLIYGASTRATGIPARFSGSGSGTEFTLTISSLQSEDFAVYYCQQSPPWPRTFGGGTKVEIK",–,–,–,–,21.9,–,binding result (Cyno TIGIT-Fc): no binding
"Fab of anti-TIGIT clone 32931 (Fab, V domains shown, Fab) VH: QLQLQESGPGLVKPSETLSLTCTVSGGSISSGSYYLAWIRQPPGKGLEWIGSIFRSGSTYYNPSLESRVTISVDTSKNQFSLKLSSVTAADTAVYYCAIEGANFKDFGYVAFDIWGQGTTVTVSS VL: EIVMTQSPATLSVSPGERATLSCRASKSVSSNLAWYQQKPGQAPRLLIYFASTRATGIPARFSGSGSGTEFTLTISSLQSEDFAVYYCQQTSPWPRTFGGGTKVEIK",–,–,–,–,1.18,1.97,–
"Fab of anti-TIGIT clone 32919 (Fab, V domains shown, Fab) VH: QLQLQESGPGLVKPSETLSLTCTVSGGSISSGSYYLAWIRQPPGKGLEWIGSIFRSGSTYYNPSLESRVTISVDTSKNQFSLKLSSVTAADTAVYYCAIEGANFKDFGYVAFDIWGQGTTVTVSS VL: EIVLTQSPATLSLSPGERATLSCRASQSVSSYLAWYQQKPGQAPRLLIYDASNRATGIPARFSGSGSGTDFTLTISSLEPEDFAVYYCQQENPRPRTFGGGTKVEIK",–,–,–,–,1.42,6.57,–
"Fab of anti-TIGIT clone 26518 (Fab, V domains shown) VH: EVQLVESGGGLVQPGGSLRLSCAASGFTFSSYGMSWVRQAPGKGLEWVANIKQDGSEKYYVDSVKGRFTISRDNAKNSLYLQMNSLRAEDTAVYYCARVSYYYDSSKLRWAEYFQHWGQGTLVTVSS VL: EIVLTQSPATLSLSPGERATLSCRASQSVSSYLAWYQQKPGQAPRLLIYDASKRATGIPARFSGSGSGTDFTLTISSLEPEDFAVYYCQQVHNFPLTFGGGTKVEIK",–,–,–,–,1.24,4.47,–

# More lines, main results first:
"Induction over Isotype control (fold change), luciferase, Jurkat-hTIGIT + CHO-TCR-CD155, 133 nM [1] [fold]",Kd (Human TIGIT-Fc) [nM],FON (Fold Over Negative) [2] [fold],FON (Fold Over Negative) [3] [fold],Kd (Human TIGIT-His) [nM],Kd (Cyno TIGIT-Fc) [nM],Binder,further results
2.66,0.541,146,218,–,–,"anti-TIGIT antibody clone 26521 (IgG) (antibody, V domains shown, parent clone) VH: QVQLVQSGAEVKKPGSSVKVSCKASGGTFSSYAISWVRQAPGQGLEWMGGIIPIFGTANYAQKFQGRVTITADESTSTAYMELSSLRSEDTAVYYCARLHLGSSAYYGMDVWGQGTTVTVSS VL: DIQMTQSPSSLSASVGDRVTITCRASQSISSYLNWYQQKPGKAPKLLIYAASSLQSGVPSRFSGSGSGTDFTLTISSLQPEDFATYYCQQRYVFPPTFGGGTKVEIK",–
1.9,0.589,143,199,–,–,"anti-TIGIT antibody clone 26486 (IgG) (antibody, V domains shown, parent clone) VH: QVQLQESGPGLVKPSETLSLTCAVSGYSISSGYYWAWIRQPPGKGLEWIGSIYHSGSTYYNPSLKSRVTISVDTSKNQFSLKLSSVTAADTAVYYCAIEGANYYDFGYVAFDIWGQGTMVTVSS VL: EIVMTQSPATLSVSPGERATLSCRASQSVSSNLAWYQQKPGQAPRLLIYGASTRATGIPARFSGSGSGTEFTLTISSLQSEDFAVYYCQQSPPWPRTFGGGTKVEIK",–
–,–,741,–,–,–,"anti-TIGIT antibody clone 32931 (IgG) (antibody, V domains shown, human IgG; light chain optimised from 31288) VH: QLQLQESGPGLVKPSETLSLTCTVSGGSISSGSYYLAWIRQPPGKGLEWIGSIFRSGSTYYNPSLESRVTISVDTSKNQFSLKLSSVTAADTAVYYCAIEGANFKDFGYVAFDIWGQGTTVTVSS VL: EIVMTQSPATLSVSPGERATLSCRASKSVSSNLAWYQQKPGQAPRLLIYFASTRATGIPARFSGSGSGTEFTLTISSLQSEDFAVYYCQQTSPWPRTFGGGTKVEIK","EC50 of Jurkat-hTIGIT cell activation (luciferase), FIG. 12B [4]: 3.2 nM"
2.89,0.63,154,233,–,–,"anti-TIGIT antibody clone 26518 (IgG) (antibody, V domains shown, parent clone) VH: EVQLVESGGGLVQPGGSLRLSCAASGFTFSSYGMSWVRQAPGKGLEWVANIKQDGSEKYYVDSVKGRFTISRDNAKNSLYLQMNSLRAEDTAVYYCARVSYYYDSSKLRWAEYFQHWGQGTLVTVSS VL: EIVLTQSPATLSLSPGERATLSCRASQSVSSYLAWYQQKPGQAPRLLIYDASKRATGIPARFSGSGSGTDFTLTISSLEPEDFAVYYCQQVHNFPLTFGGGTKVEIK",–
–,–,680,–,–,–,"anti-TIGIT antibody clone 32919 (IgG) (antibody, V domains shown, human IgG; light chain optimised from 31288) VH: QLQLQESGPGLVKPSETLSLTCTVSGGSISSGSYYLAWIRQPPGKGLEWIGSIFRSGSTYYNPSLESRVTISVDTSKNQFSLKLSSVTAADTAVYYCAIEGANFKDFGYVAFDIWGQGTTVTVSS VL: EIVLTQSPATLSLSPGERATLSCRASQSVSSYLAWYQQKPGQAPRLLIYDASNRATGIPARFSGSGSGTDFTLTISSLEPEDFAVYYCQQENPRPRTFGGGTKVEIK","EC50 of Jurkat-hTIGIT cell activation (luciferase), FIG. 12B [4]: 2.7 nM"
3.57,0.527,182,500,–,–,"anti-TIGIT antibody clone 29478 (IgG) (antibody, V domains shown) VH: EVQLVESGGGVVQPGRSLRLSCAASGFTFESYGMVWVRQAPGKGLEWVASILYDGSNRYYADSVKGRFTVSRDNSKNTLYLQMNSLRAEDTAVYYCARVSYYYDSVELRWAEYFQHWGQGTLVTVSS VL: EIVLTQSPATLSLSPGERATLSCRASQSVSSYLAWYQQKPGQAPRLLIYDASKRATGIPARFSGSGSGTDFTLTISSLEPEDFAVYYCQQVHNFPLTFGGGTKVEIK",–
–,4.62,–,–,–,–,"anti-TIGIT antibody clone 26432 (IgG) (antibody, V domains shown, also called parental clone 26432) VH: QVQLVQSGAEVKKPGSSVKVSCKASGGTFSSYAISWVRQAPGQGLEWMGGIIPIFGTANYAQKFQGRVTITADESTSTAYMELSSLRSEDTAVYYCAREAQSYRVPFDIWGQGTMVTVSS VL: EIVMTQSPATLSVSPGERATLSCRASQSVSSNLAWYQQKPGQAPRLLIYGASTRATGIPARFSGSGSGTEFTLTISSLQSEDFAVYYCQQYAIWPPFTFGGGTKVEIK",–
